Assay results taken from article PMC7383879, “HSI2/VAL1 and HSL1/VAL2 function redundantly to repress DOG1 expression in Arabidopsis seeds and seedlings”.

Molecular target: T1, HSI2 B3 domain (B3HSI2) (Arabidopsis thaliana, UniProt Q8W4L5 295-396)
T1 sequence: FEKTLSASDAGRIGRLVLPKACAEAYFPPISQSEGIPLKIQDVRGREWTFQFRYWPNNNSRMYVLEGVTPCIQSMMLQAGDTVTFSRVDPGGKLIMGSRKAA
Assay: EMSA; 10 mM Tris pH 7.9, 30 mM KCl, 0.1 mM EDTA, 1 mM DTT, 0.05% NP-40, 6.5% glycerol, 50 ng/ml (so in the source) poly(dIdC), 50 fmol probe, 20 min at room temperature
Details: protein: recombinant; tags: His-Trx (Results); His (Methods, legend); label: 3' biotin; blunt

B1: mRY1 probe (dsDNA)
DNA 1: GTCCTCCACGTAATGGACTACTGCGTTATTTCTTTT
DNA 2: AAAAGAAATAACGCAGTAGTCCATTACGTGGAGGAC
B1: no binding.

B2: RY1 probe (dsDNA)
DNA 1: GTCCTCCACGTAATGCATGCATGCGTTATTTCTTTT
DNA 2: AAAAGAAATAACGCATGCATGCATTACGTGGAGGAC
B2: binds.
